B1: LCOR (parent)
chain: YKVKERLGTLKNPPKKKMKLMSG

Variants of: B1
Test: protein stability index of a GFP-peptide fusion (GPS, HEK-293T) (PSI 1-6); higher = more stable
Settings: c terminus: native
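Also: lentivirally expressed fusions sorted by FACS into six bins by GFP to DsRed ratio, PSI derived from sequencing read proportions per bin multiplied by bin number.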

| Variant | protein stability index |
| --- | --- |
| YKVKERLGTLKWPPKKKMKLMSG [N12W] | 2.83 |
| YKVKERLGTLKGPPKKKMKLMSG [N12G] | 2.84 |
| YKVKERLGTLKMPPKKKMKLMSG [N12M] | 1.26 |
| YKVKERLGTLKRPPKKKMKLMSG [N12R] | 3.15 |
| YKVKERLGTLKFPPKKKMKLMSG [N12F] | 1.86 |
| YKVKERLGTLKAPPKKKMKLMSG [N12A] | 2.54 |
| YKVKERLGTLKQPPKKKMKLMSG [N12Q] | 2.6 |
| YKVKERLGTLKHPPKKKMKLMSG [N12H] | 2.7 |
| YKVKERLGTLKDPPKKKMKLMSG [N12D] | 1.65 |
| YKVKERLGTLKPPPKKKMKLMSG [N12P] | 2.33 |
| YKVKERLGTLKKPPKKKMKLMSG [N12K] | 2.25 |
| YKVKERLGTLKVPPKKKMKLMSG [N12V] | 1.86 |
| YKVKERLGTLKCPPKKKMKLMSG [N12C] | 3.3 |
| YKVKERLGTLKSPPKKKMKLMSG [N12S] | 1.72 |
| YKVKERLGTLKIPPKKKMKLMSG [N12I] | 1.09 |
| YKVKERLGTLKEPPKKKMKLMSG [N12E] | 1.61 |
| YKVKERLGTLKYPPKKKMKLMSG [N12Y] | 2.39 |
| YKVKERLGTLKTPPKKKMKLMSG [N12T] | 3.6 |
| YKVKERLGTLKNPPKKKMPLMSG [K19P] | 2.26 |
| YKVKERLGTLKNPPKKKMALMSG [K19A] | 3.4 |
| YKVKERLGTLKNPPKKKMILMSG [K19I] | 3.48 |
| YKVKERLGTLKNPPKKKMQLMSG [K19Q] | 3.03 |
| YKVKERLGTLKNPPKKKMCLMSG [K19C] | 2.15 |
| YKVKERLGTLKNPPKKKMWLMSG [K19W] | 2.52 |
| YKVKERLGTLKNPPKKKMTLMSG [K19T] | 2.38 |

| Variant | protein stability index |
| --- | --- |
| YKVKERLGTLKNPPKKKMVLMSG [K19V] | 2.77 |
| YKVKERLGTLKNPPKKKMGLMSG [K19G] | 1.34 |
| YKVKERLGTLKNPPKKKMELMSG [K19E] | 2.5 |
| YKVKERLGTLKNPPKKKMHLMSG [K19H] | 2.51 |
| YKVKERLGTLKNPPKKKMNLMSG [K19N] | 2.96 |
| YKVKERLGTLKNPPKKKMDLMSG [K19D] | 2.64 |
| YKVKERLGTLKNPPKKHMKLMSG [K17H] | 2.02 |
| YKVKERLGTLKNPPKKVMKLMSG [K17V] | 1.68 |
| YKVKERLGTLKNPPKKSMKLMSG [K17S] | 1.42 |
| YKVKERLGTLKNPPKKMMKLMSG [K17M] | 1.94 |
| YKVKERLGTLKNPPKKDMKLMSG [K17D] | 1.83 |
| YKVKERLGTLKNPPKKYMKLMSG [K17Y] | 2.25 |
| YKVKERLGTLKNPPKKWMKLMSG [K17W] | 1.83 |
| YKVKERLGTLKNPPKKAMKLMSG [K17A] | 2.41 |
| YKVKERLGTLKNPPKKPMKLMSG [K17P] | 2.59 |
| YKVKERLGTLKNPPKKTMKLMSG [K17T] | 1.76 |
| YKVKERLGTLKNPPKKLMKLMSG [K17L] | 1.34 |
| YKVKERLGTLKNPPKKRMKLMSG [K17R] | 2.22 |
| YKVKERLGTLKNPPKKIMKLMSG [K17I] | 2.58 |
| YKVKERLGTLKNPPKKFMKLMSG [K17F] | 2.02 |
| YKVKERLGTLKNPPKKQMKLMSG [K17Q] | 2.96 |
| YKVKERLGTLKNPPKKEMKLMSG [K17E] | 2.63 |
| YKVKERLGTLKNPPKKGMKLMSG [K17G] | 1.43 |
| YKVKERLGTLKNPPKKNMKLMSG [K17N] | 1.83 |
| YKVKERLGRLKNPPKKKMKLMSG [T9R] | 1.81 |

| Variant | protein stability index |
| --- | --- |
| YKVKERLGWLKNPPKKKMKLMSG [T9W] | 3.03 |
| YKVKERLGVLKNPPKKKMKLMSG [T9V] | 2.35 |
| YKVKERLGGLKNPPKKKMKLMSG [T9G] | 1.23 |
| YKVKERLGQLKNPPKKKMKLMSG [T9Q] | 2.64 |
| YKVKERLGHLKNPPKKKMKLMSG [T9H] | 2.33 |
| YKVKERLGELKNPPKKKMKLMSG [T9E] | 1.53 |
| YKVKERLGNLKNPPKKKMKLMSG [T9N] | 2.45 |
| YKVKERLGILKNPPKKKMKLMSG [T9I] | 1.5 |
| YKVKERLGDLKNPPKKKMKLMSG [T9D] | 2.17 |
| YKVKERLGSLKNPPKKKMKLMSG [T9S] | 2.19 |
| YKVKERLGKLKNPPKKKMKLMSG [T9K] | 2.06 |
| YKVKERLGYLKNPPKKKMKLMSG [T9Y] | 2.22 |
| YKVKERLGALKNPPKKKMKLMSG [T9A] | 1.96 |
| YKVKERLGLLKNPPKKKMKLMSG [T9L] | 3.4 |
| YKVKERLGMLKNPPKKKMKLMSG [T9M] | 2.39 |
| YKVKERLGCLKNPPKKKMKLMSG [T9C] | 2.2 |
| YKVKERLGTVKNPPKKKMKLMSG [L10V] | 2 |
| YKVKERLGTQKNPPKKKMKLMSG [L10Q] | 1.52 |
| YKVKERLGTYKNPPKKKMKLMSG [L10Y] | 3.47 |
| YKVKERLGTGKNPPKKKMKLMSG [L10G] | 1.35 |
| YKVKERLGTHKNPPKKKMKLMSG [L10H] | 1.85 |
| YKVKERLGTAKNPPKKKMKLMSG [L10A] | 2.38 |
| YKVKERLGTKKNPPKKKMKLMSG [L10K] | 1.85 |
| YKVKERLGTCKNPPKKKMKLMSG [L10C] | 2.19 |
| YKVKERLGTNKNPPKKKMKLMSG [L10N] | 2.85 |

| Variant | protein stability index |
| --- | --- |
| YKVKERLGTRKNPPKKKMKLMSG [L10R] | 2.23 |
| YKVKERLGTEKNPPKKKMKLMSG [L10E] | 2.04 |
| YKVKERLGTDKNPPKKKMKLMSG [L10D] | 1.86 |
| YKVKERLGTMKNPPKKKMKLMSG [L10M] | 2.8 |
| YKVKERLGTFKNPPKKKMKLMSG [L10F] | 2.46 |
| YKVKERLGTWKNPPKKKMKLMSG [L10W] | 2.42 |
| YKVKERLGTIKNPPKKKMKLMSG [L10I] | 1.5 |
| YKVKERLGTSKNPPKKKMKLMSG [L10S] | 1.85 |
| YKVKERLGTPKNPPKKKMKLMSG [L10P] | 1.42 |
| YKVKERLGTTKNPPKKKMKLMSG [L10T] | 2.52 |
| YKVKERLGTLKNCPKKKMKLMSG [P13C] | 2.03 |
| YKVKERLGTLKNDPKKKMKLMSG [P13D] | 1.93 |
| YKVKERLGTLKNFPKKKMKLMSG [P13F] | 2.63 |
| YKVKERLGTLKNGPKKKMKLMSG [P13G] | 1.5 |
| YKVKERLGTLKNHPKKKMKLMSG [P13H] | 2.49 |
| YKVKERLGTLKNQPKKKMKLMSG [P13Q] | 1.76 |
| YKVKERLGTLKNIPKKKMKLMSG [P13I] | 2.27 |
| YKVKERLGTLKNAPKKKMKLMSG [P13A] | 2.68 |
| YKVKERLGTLKNLPKKKMKLMSG [P13L] | 2.02 |
| YKVKERLGTLKNVPKKKMKLMSG [P13V] | 1.98 |
| YKVKERLGTLKNTPKKKMKLMSG [P13T] | 2.42 |
| YKVKERLGTLKNKPKKKMKLMSG [P13K] | 3.2 |
